Assay results from the nanobody polyreactivity screen of Harvey et al. (2022).

Experiment: yeast display, Sf9 membrane polyspecificity reagent, FACS + sequencing; frameworks hold sequencing errors
Outline: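 Genes from sorted yeast were amplified by colony PCR, read by MiSeq 2 × 250 sequencing and filtered on CDR length. These cells carried a synthetic nanobody library in Saccharomyces cerevisiae BJ5465 and were sorted by FACS into low and high (top ~1%) gates on anti-HA and streptavidin fluorescence. Polyreactivity is labelled according to the gate of origin.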

Row | Sequence | polyreactivity (PSR sort gate)
1 | QVQLVESGGGLVQAGGSLRLSCAASGSTFGRYAMGWYRQAPGKERELVAAITRSGGRTYYADSVKGRFTISRDNAKNTVYLQLNSLKPEDTAVYYCAAVGNLYYTSHWQYDYWGQGTQVTVSS | high polyreactivity
2 | QDQLVESGGGLVQAGGSLRLSCAASGLTFYTYAMGWYRPAPGKERELVAAIRWRGGRTYYADSVKGRFTISRDNAKNTVYLLMNSLKPEDTAVYYCAADYSTLYKYDYWGQGTQVTVSS | low polyreactivity
3 | QVQLEESRGGLVQAGGSLRLSSADSGSTFDYYAKGWYRQAPGKERELVAAITSTGRTYYADSVKGRFTISRDNAKNTVYLQMNSLKPEDTAVYYCAADLPWGPLFDYWGQGTQVTVSS | low polyreactivity
4 | QVQLVESGGGLVQAGGSLRLSSAASGRTFHRNAMGWYRQAPGKERELVAAITGDGRTNYADSVKGRFTISRDNAKNTVYLQMNSLKPEDTAVYYCAARFSYRSYDYWGQGTQVTVSS | low polyreactivity
5 | QVQLVESGGGLVQAGGSLRLSCAASGSILPTNAMGWYRQAPGKERELGASITRSGGSTYYADSVKGRFTISRDNAKNTVYLQMNSLKPEDTAVYYCNARGFTRYTVGRNYWGQGTQVTVSS | high polyreactivity
6 | QVQLVESGGGLDQAGGTLRLSSAASGFTFGSYAMRWYRQAHGKERELVAAITRSGSTTYYADSVKGRFTISRDNAKNTFFLQMNSLKPEDTAVDYCNAYTVRSYRFDYWGQGTQVTVSS | high polyreactivity
7 | QVQLVESGGGLVQAGGSLRLSCAASGFTFRRNTMGWYRQEPGKERELVAAITQRGGSTYYADSVKGRFTISRDNAKNTVYLQMNSLKPEDTAVYYCAVDRHSYIYKYDYWGQGTQVTVSS | high polyreactivity
8 | QVQLVESGVGLVQAGGSLRFSCAASAMGWSRQAPGKERELVAVINSTGGSTYYADSVKGRFTISRDNAKNTVYLQMNSLKPDATAVYYCARVTRRGPGYTTLYSRYDYWGQGTQVSVSS | low polyreactivity
9 | QVHLVESGVGLVQAGGTLRLSCAASGRTFRVYALVWYRQAPGKERELVAAITWNGGSTYYADSVKGRFTISRDNAKNNVYLQMNRLKPEDTAVYYSAAARYAYNIWSGAYDYWGQGTQVTVSS | high polyreactivity
10 | QVQLVESGGGLVQAGGSLRLSCAASGLYAMGWYRPAPGKERELVADINSSGGSITNYADSVKGRFTISRDNAKNTVYLQMISLKPEDTAVYYCAKRGPYFAYDYWGQGTQVTVSS | low polyreactivity
11 | QVQLVESGGGLVQAGGSLRLSCAASGFIFLGYAMGWYRQAPGNERELVAAISESSGTTSYADSVKGRFTISRDNAKNTVYLQMNSLKPEDNAVYYCAADSIGNYLLYDYWGQCTQVTVSS | low polyreactivity
12 | QVQLVESGGGLVQAGGRLRLSCAASGFTFTRYTMGWYRQAPGKERELVARITRSGASTYYADSVKGRFTISRDNAKNTVYLQMNSLKPEDTAVYYCAADTWSYTTRYYYWGQGTQVTVSS | high polyreactivity
13 | HVQLEESGGGLVQAGGSLRLSCAASGRIFYPYAMGWYRQAPGKERELVAAISRSGGSTYYADSVKGRFTISRDNAKNTVYLQMNSLKPEDTAVYYCATGFYRAISHHGYDYWGQGTQVTVSS | low polyreactivity
14 | QVQLVESGGGLVQAGGSLRLSCAASGRTFLGYAMGWYRQAPGKERELVAAITWRGGITYYADSVKGRFTISRDNAKNTVYLQMNSLKPEDTAVYYCARDYGQYGWYRYGRTFDNWGQGTQVTVSS | high polyreactivity
15 | QVQLVESGGGLVQAGGSLRLSCAASGSTFFTYAMGWYRQAPGKERELVASISIGGSTNYADSVKGRFTISRDNAKNTVYLQMNSLKPEDTAVYYCAIRYFTFGVDYDYWGHGTQVTVSS | low polyreactivity
16 | QVQLVESGGGLVQAGGSLRLSCAASGRIFKYYAMGGYRQAPGKERELVAAISGSGGSTFYADSVKGRFTISRDNAKNTVYLQMNSLKPEDSALYYCNADEVVWGYNYWGQVTQVTVSS | low polyreactivity
17 | QVQLVESGGGLVQAGGSLRLSCAASGFTFYRYAMGWYRQAPGKERELVASIRWGGGSTYYADSVKGRFTISRDNAKNTFYLEMNSLKPEDTAVYYCAAYFGYTVGRYNYWGQGTQVTVSS | high polyreactivity
